Here are results for 1 molecule from publication doi:10.1101/2021.08.01.454623.

The Kd is the equilibrium constant for the complex coming apart. Higher therefore signals lower affinity.

In this data set the target is CL11 (ribosomal protein L11 C-terminal domain, wild type) (Bacillus stearothermophilus, UniProt P56210 59-133). In words: SPR. Background: Surface plasmon resonance follows binding to a sensor surface in real time, without labels.
CL11 (ribosomal protein L11 C-terminal domain, wild type), sequence (P56210 59-133): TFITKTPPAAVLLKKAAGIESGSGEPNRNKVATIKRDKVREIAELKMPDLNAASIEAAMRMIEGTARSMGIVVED

B1: biotinylated 58rRNA (structured_RNA)
RNA: GCCAGGAUGUAGGCUUAGAAGCAGCCAUCAUUUAAAGAAAGCGUAAUAGCUCACUGGU
B1 registered a Kd of 2.4 nM.
